Measured values reported in US8772229B2, “Methods for synthesis and uses of inhibitors of ghrelin O-acyltransferase as potential therapeutic agents for obesity and diabetes” (The Johns Hopkins University, priority 2008, dated 2014).

Columns and labels:
p300 HAT = molecular target: T1, p300 HAT (Homo sapiens, UniProt Q09472); assay: Acetyltransferase specificity assay (α-KGDH coupled), p300; type: biochemical
T1 construct: Recombinant acetyltransferase domains and histone tail peptides were prepared as described previously (38-40); made in house
T1 sequence (Q09472 1287-1663 limits assumed): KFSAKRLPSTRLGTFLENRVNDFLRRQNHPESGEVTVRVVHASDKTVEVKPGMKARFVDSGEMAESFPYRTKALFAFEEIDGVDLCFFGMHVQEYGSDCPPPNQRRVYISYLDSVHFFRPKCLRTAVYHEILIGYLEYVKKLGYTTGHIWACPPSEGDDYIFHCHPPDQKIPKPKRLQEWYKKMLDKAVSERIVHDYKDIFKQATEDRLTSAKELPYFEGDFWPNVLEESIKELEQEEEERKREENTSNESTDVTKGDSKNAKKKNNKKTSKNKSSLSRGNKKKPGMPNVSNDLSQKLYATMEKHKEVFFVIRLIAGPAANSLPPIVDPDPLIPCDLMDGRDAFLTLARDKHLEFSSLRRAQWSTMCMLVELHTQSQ
Method: (§1) The specificity of GO-CoA-Tat with the acetyltransferases p300, PCAF, and AANAT was measured using an α-ketoglutarate dehydrogenase (α-KGDH) coupled spectrophotometric assay (37). Recombinant acetyltransferase domains and histone tail peptides were prepared as described previously (38-40). The production of CoASH by the acetyltransferase is coupled to the formation of NADH, which is monitored at 340 nm (ε340=6230 M^−1 cm^−1) in a Beckman DU-640 spectrophotometer. All reactions contain 200 μM thiamine pyrophosphate, 5 mM MgCl2, 1 mM DTT, 50 μg/mL BSA, 200 μM NAD, 2.4 mM α-ketoglutarate, 10 μM GO-CoA-Tat, and 50 μM acetyl-CoA. Reactions with p300 were performed in 100 mM HEPES, pH 7.9, and contain 0.1 units α-KGDH and 200 μM H4-15, a 15-mer peptide substrate based on the sequence of the histone H4 tail. p300 reactions are incubated at 30° C. prior to initiation with addition of 100 nM p300 and take place at 30° C. Reactions with PCAF are performed in 100 mM HEPES, pH 7.9, and contain 0.037 units α-KGDH and 100 μM H3-20, a 20-mer peptide substrate based on the sequence of the histone H3 tail. PCAF reactions are incubated at 30° C. for 10 minutes prior to initiation with addition of 100 nM PCAF and take place at 30° C. Reactions with AANAT are performed in 100 mM NH4OAc, pH 6.8, and contain 0.1 units α-KGDH and 200 μM tryptamine. […]

[1] = molecular target: T2, serotonin N-acetyltransferase (Ovis aries, UniProt Q29495); assay: Acetyltransferase specificity assay (α-KGDH coupled), AANAT; type: biochemical
T2 construct: Recombinant acetyltransferase domains and histone tail peptides were prepared as described previously (38-40); made in house
T2 sequence (Q29495 35-196 limits assumed): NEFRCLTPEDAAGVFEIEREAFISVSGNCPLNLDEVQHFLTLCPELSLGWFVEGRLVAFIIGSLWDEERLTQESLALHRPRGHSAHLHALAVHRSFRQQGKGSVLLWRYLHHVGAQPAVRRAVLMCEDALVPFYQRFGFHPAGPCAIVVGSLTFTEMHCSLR
Method: as §1

[2] = Blood chemistries and blood cell counts after 12 days of treatment; type: in vivo, mice; conditions: 12 day treatment
Text: To investigate the potential for GO-CoA-Tat induced generalized toxicity or organ damage as a source of weight loss, we assessed the blood chemistries and blood cell counts in the 12 day GO-CoA-Tat treated animals.

PCAF HAT = molecular target: T3, PCAF HAT (Homo sapiens, UniProt Q92831); assay: Acetyltransferase specificity assay (α-KGDH coupled), PCAF; type: biochemical
T3 construct: Recombinant acetyltransferase domains and histone tail peptides were prepared as described previously (38-40); made in house
T3 sequence (Q92831 503-651 limits assumed): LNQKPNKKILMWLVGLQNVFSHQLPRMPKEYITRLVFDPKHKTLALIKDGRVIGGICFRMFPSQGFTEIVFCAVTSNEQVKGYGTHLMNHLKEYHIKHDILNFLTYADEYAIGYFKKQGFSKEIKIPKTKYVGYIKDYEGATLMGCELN
Method: as §1

HEL cell = assay: Cell viability assay (LIVE/DEAD), HEL cells; type: cell-based, human; conditions: 10 μM, 24 hr incubation
Method: (§2) The viability of the HEL cell line and the human immortalized hepatocyte cell line HepG2 (ATCC, Manassas, Va.) treated with the varying concentrations of GO-CoA-Tat was determined using a LIVE/DEAD viability assay kit (Molecular Probes). […] were incubated with two probes, 2 μM calcein-AM (green color) for 30 min and 4 μM ethidium homodimer-1 (EtdD-1, bright red color) for 10 min, for intracellular esterase activity and plasma membrane integrity, respectively. Calcein-AM was excited using the 500 nm laser line, and the emitted fluorescence was detected through a 535 nm long-pass filter. EtdD-1 was excited using the 514 nm laser line, and the emitted fluorescence was detected through a 550 nm long-pass filter. Red fluorescent (EtdD-1) cells were counted as dead, and green fluorescent (Calcein-AM) were counted as viable. In cases of dual partial red and green staining, cells were counted as dead.

HEPG2 cell = assay: Cell viability assay (LIVE/DEAD), HepG2 cells; type: cell-based, human; conditions: 10 μM, 24 hr incubation
Method: as §2

Structure (SMILES): CCCCCCC(SCCNC(=O)CCNC(=O)[C@H](O)C(C)(C)COP(=O)(O)OP(=O)(O)OC[C@H]1O[C@@H](n2cnc3c(N)ncnc32)[C@H](O)[C@@H]1OP(=O)(O)O)C(=O)NC[C@H](NC(=O)[C@H](CO)NC(=O)CN)C(=O)N[C@@H](Cc1ccccc1)C(=O)N[C@@H](CC(C)C)C(=O)N[C@@H](CO)C(=O)N1CCC[C@H]1C(=O)N[C@@H](CCC(=O)O)C(=O)N[C@@H](Cc1c[nH]cn1)C(=O)N[C@@H](CCC(N)=O)C(=O)NCCCCCC(=O)N[C@@H](Cc1ccc(O)cc1)C(=O)NCC(=O)N[C@@H](CCCNC(=N)N)C(=O)N[C@@H](CCCCN)C(=O)N[C@@H](CCCCN)C(=O)N[C@@H](CCCNC(=N)N)C(=O)N[C@@H](CCCNC(=N)N)C(=O)N[C@@H](CCC(N)=O)C(=O)N[C@@H](CCCNC(=N)N)C(=O)N[C@@H](CCCNC(=N)N)C(=O)N[C@@H](CCCNC(=N)N)C(=O)O (some centres unmarked) [GO-CoA-Tat]
- inhibition at 10 µM (p300 HAT): < 15%
- inhibition at 10 µM [1]: < 15%
- organ toxicity from blood chemistries and blood cell counts ([2]; 29 mg/kg IP daily): no evidence of liver, renal, pancreas, or bone marrow toxicities
- HDL ([2]; vs. D4-Tat): small but significant increases
- triglycerides ([2]; vs. D4-Tat): small but significant increases
- inhibition at 10 µM (PCAF HAT): < 15%
- HEL cell viability (HEL cell): non-toxic
- HEPG2 cell viability (HEPG2 cell): non-toxic
